# Measurements as given in patent publication US20040063148A1.
# Tests used:
# [1] = tested on: T1, Gαt-rod peptide
# T1 sequence: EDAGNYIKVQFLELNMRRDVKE
# [2] = molecular target: Bovine brain calmodulin (UniProt P62157)
substance,measurement,setting,value
PDE1A1 of bovine taste tissue (PDE of anion exchange fraction 11),"PDE activity of fraction 11 (1 µM cGMP as substrate), 100 µM peptide",[1],The PDE activities of both fractions 6 and 11 are stimulated by the presence of the Gαt-rod peptide
PDE1A7 of bovine taste tissue (PDE of anion exchange fractions 6-7),"PDE activity of fraction 6 (1 µM cGMP as substrate), 100 µM peptide",[1],The PDE activities of both fractions 6 and 11 are stimulated by the presence of the Gαt-rod peptide
PDE4 of bovine taste tissue (anion exchange fractions 19-23),"cAMP hydrolyzing activity of fractions 19-23, 1 mM CaCl2 and 4 µg/ml CaM",[2],The cAMP hydrolyzing activity of this forth peak is neither Ca^2+/CaM nor Gαt-rod peptide dependent
same,"cAMP hydrolyzing activity of fractions 19-23, 100 µM peptide",[1],The cAMP hydrolyzing activity of this forth peak is neither Ca^2+/CaM nor Gαt-rod peptide dependent
